# From PMC9304170, “Chloromethyl Glycosides as Versatile Synthons to Prepare Glycosyloxymethyl‐Prodrugs” (Chemistry (Weinheim an Der Bergstrasse, Germany), 2022)
# Several values for one entry are separate records, joined by “and”; a condition that tells them apart may be missing. Identical values can stand only once.
# B1: Agrobacterium Sp. β-glucosidase (Abg, GH1 family) (Agrobacterium sp. ATCC 21400) (protein)
# chain: MTDPNTLAARFPGDFLFGVATASFQIEGSTKADGRKPSIWDAFCNMPGHVFGRHNGDIACDHYNRWEEDLDLIKEMGVEAYRFSLAWPRIIPDGFGPINEKGLDFYDRLVDGCKARGIKTYATLYHWDLPLTLMGDGGWASRSTAHAFQRYAKTVMARLGDRLDAVATFNEPWCAVWLSHLYGVHAPGERNMEAALAAMHHINLAHGFGVEASRHVAPKVPVGLVLNAHSAIPASDGEADLKAAERAFQFHNGAFFDPVFKGEYPAEMMEALGDRMPVVEAEDLGIISQKLDWWGLNYYTPMRVADDATPGVEFPATMPAPAVSDVKTDIGWEVYAPALHTLVETLYERYDLPECYITENGACYNMGVENGQVNDQPRLDYYAEHLGIVADLIRDGYPMRGYFAWSLMDNFEWAEGYRMRFGLVHVDYQTQVRTVKNSGKWYSALASGFPKGNHGVAKG
# Tests used:
# [1] = molecular target: T1, Abg (Agrobacterium Sp. β-glucosidase) (Agrobacterium sp., UniProt P12614); assay: Enzymatic hydrolysis at 13 mM studied by quantitative 1H NMR; format: biochemical; conditions: 13 mM substrate in D2O, maleate buffer pD 6.5, Abg 1.6 U/mL, 37 °C
# T1 sequence (P12614 1-459): B1 chain
# [2] = molecular target: T2, Agrobacterium Sp. β-glucosidase (Abg, GH1 family) (Agrobacterium sp., UniProt P12614); assay: Michaelis-Menten kinetics of enzymatic hydrolysis, release of 4-nitrophenol (absorbance at 405 nm); format: biochemical; conditions: transglycosylation suggested for rate enhancement
# T2 sequence (P12614 1-459): B1 chain
# Procedure: (§1) Enzymatic reactions were performed in triplo at pH 6.8 (50 mM final concentration) containing 0.1 % bovine serum albumin at 37 °C.[25] Aliquots of 100 μL were taken at constant time periods and added to 100 μL aq. NaOH (0.1 M) in a 96‐well microtitre plate to quench the enzymatic reaction and ensure maximal absorption of sodium 4‐nitrophenolate as outlined in previous studies.[28] The initial rate (vo) was determined normalized on the ∼0.1 U/mL enzyme concentration and plotted against substrate concentration [S]. Non‐linear regression analysis based on 7–10 concentrations depending on the glycoside, was used to determine the Km and k cat values. k cat values were normalized based on the enzyme concentration. […]
# (§2) Kinetic evaluation of 4- nitrophenyloxymethyl glycosides. Enzyme reactions were performed in triplicate. Substrate samples (final volume of 1 mL) were prepared by diluting carefully prepared substrate stock solutions with sodium phosphate buffer pH 6.8 (50 mM final concentration) containing 0.1% bovine serum albumin and milliQ to the desired concentration. The samples were equilibrated at 37 °C for at least 5 minutes before the enzyme in 50 mM buffer (2 U per ml, 50 uL) was added. Aliquots of 100 µL were taken at constant time periods and added to 100 µL aq. NaOH (0.1 M) in a 96 well microtiter plate to quench the enzymatic reaction. The absorbance was measured at 405 nm using a Tecan Spark M10 plate reader.
# (§3) Negative assay controls contained no substrate or no enzyme. Rates of the enzymatic reactions were determined at 7 different substrate concentrations from 0.02 – 1.0 mM. Km and kcat values were determined by nonlinear regression analysis using Graphpad 5.0 (GraphPad Software, San Diego, California USA, www.graphpad.com) for fitting the data. Calibration samples at varying concentration (0.05 – 0.5 mM) were prepared similar to the substrate samples in the enzyme reactions by diluting a carefully prepared 4-nitrophenol stock solution with sodium phosphate buffer pH 6.8 (50 mM final concentration) containing 0.1% bovine serum albumin and milliQ to the desired concentration. […]
# (§4) (T1 determined as 9.13 sec.) was used. Dynamic measurements were started by heating the sample in the NMR to 37 °C and recording a t0-spectrum. Subsequently Abg (V = 2.05 uL, 0.82 U, 1.64 U/mL) was added to the sample outside of the NMR. The sample was mixed by shaking and quickly reintroduced to the NMR.
# (§5) The time of enzyme addition was recorded as t0. Spectra were recorded over an appropriate time- scale with the relaxation delay at 3*T1 of the internal standard.
# (§6) In vivo experiments were performed at the company Charles Rivers (Den Bosch, The Netherlands) in accordance with Dutch law of animal experiments and under approval of the central committee of animal experiments (CCD). Relative and absolute bioavailability may be determined in different animal models and according to different protocols.
# (§7) The following protocol is typical for determining bioavailability in female Beagle dogs. The animals were deprived from food over a time period of 8 h prior to administration and 2 h after administration of the test molecules. Water was supplied without limitation. On the study day, the animals received test molecule 10h […]
# (§8) ethanol and 0.9% NaCl + 5% mannitol in water. Blood samples were collected from the jugular vein on the […]
# [3] = molecular target: T1, Abg (Agrobacterium Sp. β-glucosidase); assay: Enzymatic conversion of glycoside-drug conjugates at 200 μM analyzed by HPLC; format: biochemical; conditions: 37 °C; for Product release: 200 μM substrate, 50 mM phosphate buffer pH 6.8, Abg 0.1 U/mL
# [4] = Control experiments without enzyme (stability in assay buffer); format: physicochemical; conditions: 200 μM, 50 mM phosphate buffer pH 6.8, 37 °C, HPLC
# [5] = In vivo pharmacokinetics study after oral gavage, losartan in blood by LC-MS-MS; set-up: species or system female Beagle dogs; conditions: 15 μmol/kg oral gavage, Beagle dog; for Intact conjugate in the blood circulation: LC-MS-MS
# [6] = pH stability test and stability in formulation; format: physicochemical
# Procedure: In vivo experiments. […] To investigate the chemical stability towards conditions in the gastrointestinal tract, we performed pH stability test. […] The pharmacokinetic profile of 10 h was studied in a dog‐animal model (adult beagle).
# [7] = substrate: O=[N+]([O-])c1ccc(O[C@@H]2OC[C@H](O)[C@H](O)[C@H]2O)cc1; assay: Michaelis-Menten kinetics of enzymatic hydrolysis, release of 4-nitrophenol (absorbance at 405 nm); format: biochemical, Agrobacterium Sp.; conditions: other: 4-nitrophenyl glycosides 6a-f, phosphate buffer pH 6.8, 0.1 % BSA, 37 °C
# Procedure: as §1, §2, §3, §4, §5, §6, §7, §8
# [8] = substrate: C[C@H]1O[C@@H](OCOc2ccc([N+](=O)[O-])cc2)[C@H](O)[C@@H](O)[C@H]1O; assay: as above; format: biochemical, Agrobacterium Sp.; conditions: other: 4-nitrophenyloxymethyl glycosides 5a-f, phosphate buffer pH 6.8, 0.1 % BSA, 37 °C, N.A: no activity
# Procedure: as §1, §2, §3, §4, §5, §6, §7, §8
# [9] = substrate: C[C@H]1O[C@@H](OCOc2ccc([N+](=O)[O-])cc2)[C@H](O)[C@@H](O)[C@@H]1O; assay: as above; format: biochemical, Agrobacterium Sp.; conditions: other: 4-nitrophenyloxymethyl glycosides 5a-f, phosphate buffer pH 6.8, 0.1 % BSA, 37 °C, N.A: no activity
# Procedure: as §1, §2, §3, §4, §5, §6, §7, §8
# [10] = substrate: C[C@H]1O[C@@H](Oc2ccc([N+](=O)[O-])cc2)[C@H](O)[C@@H](O)[C@H]1O; assay: as above; format: biochemical, Agrobacterium Sp.; conditions: other: 4-nitrophenyl glycosides 6a-f, phosphate buffer pH 6.8, 0.1 % BSA, 37 °C
# Procedure: as §1, §2, §3, §4, §5, §6, §7, §8
# [11] = substrate: C[C@H]1O[C@@H](Oc2ccc([N+](=O)[O-])cc2)[C@H](O)[C@@H](O)[C@@H]1O; assay: as above; format: biochemical, Agrobacterium Sp.; conditions: other: 4-nitrophenyl glycosides 6a-f, phosphate buffer pH 6.8, 0.1 % BSA, 37 °C
# Procedure: as §1, §2, §3, §4, §5, §6, §7, §8
# [12] = substrate: O=[N+]([O-])c1ccc(OCO[C@@H]2O[C@H](CO)[C@@H](O)[C@H](O)[C@H]2O)cc1; assay: as above; format: biochemical, Agrobacterium Sp.; conditions: other: 4-nitrophenyloxymethyl glycosides 5a-f, phosphate buffer pH 6.8, 0.1 % BSA, 37 °C, N.A: no activity
# Procedure: as §1, §2, §3, §4, §5, §6, §7, §8
# [13] = substrate: O=[N+]([O-])c1ccc(O[C@@H]2OC[C@@H](O)[C@H](O)[C@H]2O)cc1; assay: as above; format: biochemical, Agrobacterium Sp.; conditions: other: 4-nitrophenyl glycosides 6a-f, phosphate buffer pH 6.8, 0.1 % BSA, 37 °C
# Procedure: as §1, §2, §3, §4, §5, §6, §7, §8
# [14] = substrate: O=[N+]([O-])c1ccc(O[C@@H]2O[C@H](CO)[C@@H](O)[C@H](O)[C@H]2O)cc1; assay: as above; format: biochemical, Agrobacterium Sp.; conditions: other: 4-nitrophenyl glycosides 6a-f, phosphate buffer pH 6.8, 0.1 % BSA, 37 °C
# Procedure: as §1, §2, §3, §4, §5, §6, §7, §8
# [15] = substrate: O=[N+]([O-])c1ccc(O[C@@H]2O[C@H](CO)[C@H](O)[C@H](O)[C@H]2O)cc1; assay: as above; format: biochemical, Agrobacterium Sp.; conditions: other: 4-nitrophenyl glycosides 6a-f, phosphate buffer pH 6.8, 0.1 % BSA, 37 °C
# Procedure: as §1, §2, §3, §4, §5, §6, §7, §8
# [16] = substrate: O=[N+]([O-])c1ccc(OCO[C@@H]2O[C@H](CO)[C@H](O)[C@H](O)[C@H]2O)cc1; assay: as above; format: biochemical, Agrobacterium Sp.; conditions: other: 4-nitrophenyloxymethyl glycosides 5a-f, phosphate buffer pH 6.8, 0.1 % BSA, 37 °C, N.A: no activity
# Procedure: as §1, §2, §3, §4, §5, §6, §7, §8
molecule,measurement,setting,value
"O=[N+]([O-])c1ccc(OCO[C@@H]2O[C@H](CO)[C@@H](O)[C@H](O)[C@H]2O)cc1 [5 a, 4‐nitrophenyloxymethyl glucoside]",Release of 4-nitrophenol followed by 1H NMR (in words),[1],showed release of 4‐nitrophenol
"O=[N+]([O-])c1ccc(O[C@@H]2O[C@H](CO)[C@@H](O)[C@H](O)[C@H]2O)cc1 [6 a, reference compound]",V0 at high substrate concentration (in words),[2],followed a horizontal asymptote
same,Release of 4-nitrophenol followed by 1H NMR (in words),[1],release of 4‐nitrophenol
O=c1[nH]c(=O)n(CO[C@@H]2O[C@H](CO)[C@@H](O)[C@H](O)[C@H]2O)cc1F [10 f],Product release,[3]; 0.5 h,46% and 45.8±5.2%
same,Product release,[3]; 1.0 h,65.2±1.5%
same,Product release,[3]; 2.0 h,77.8±9.7%
same,Degradation in the control experiment (without enzyme),[4],no degradation was observed
CCCCc1nc(Cl)c(CO)n1Cc1ccc(-c2ccccc2-c2nnnn2CO[C@@H]2O[C@H](CO)[C@@H](O)[C@H](O)[C@H]2O)cc1 [10 h],Enzymatic hydrolysis by Abg (in words),"[3]; 200 μM, HPLC, in presence of 5 % ethanol",hydrolyzed efficiently
same,Product release,"[3]; 0.5 h, in presence of 5 % ethanol",29.3±0.24%
same,Product release,"[3]; 1.0 h, in presence of 5 % ethanol",50.4±0.4%
same,Product release,"[3]; 2.0 h, in presence of 5 % ethanol",77.2±0.7%
same,Maximum concentration (Cmax) of losartan versus dosing of parent (in words),[5],higher
same,Intact conjugate in the blood circulation,[5],no intact conjugate was detected
same,Intact conjugate in the blood circulation,[5]; listed as 19,no conjugate was detected
same,Stability in formulation,[6]; formulation for oral gavage,stable in formulation
same,Chemical stability under acidic conditions,[6]; pH 1–2,stable for 16 h
same,Release of the parent drug under acidic conditions,"[6]; pH 1–2, 16 h",did not show any release of the parent drug
B1,Km,[7],175 µM
same,kcat,[7],1.03 s⁻¹
same,kcat/Km,[7],5890 M⁻¹ s⁻¹
same,Km,[8],202 µM
same,kcat,[8],7.18 s⁻¹
same,kcat/Km,[8],35500 M⁻¹ s⁻¹
same,Km,[9],239 µM
same,kcat,[9],0.796 s⁻¹
same,kcat/Km,[9],3330 M⁻¹ s⁻¹
same,Km,[10],233 µM
same,kcat,[10],60.3 s⁻¹
same,kcat/Km,[10],259000 M⁻¹ s⁻¹
same,Km,[11],169 µM
same,kcat,[11],29.5 s⁻¹
same,kcat/Km,[11],175000 M⁻¹ s⁻¹
same,Km,[12],84 µM
same,kcat,[12],18.4 s⁻¹
same,kcat/Km,[12],219000 M⁻¹ s⁻¹
same,Km,[13],244 µM
same,kcat,[13],0.580 s⁻¹
same,kcat/Km,[13],2380 M⁻¹ s⁻¹
same,Km,[14],108 µM
same,kcat,[14],38.8 s⁻¹
same,kcat/Km,[14],359000 M⁻¹ s⁻¹
same,Km,[15],3450 µM
same,kcat,[15],63.6 s⁻¹
same,kcat/Km,[15],18400 M⁻¹ s⁻¹
same,Km,[16],1870 µM
same,kcat,[16],3.71 s⁻¹
same,kcat/Km,[16],1980 M⁻¹ s⁻¹
